Assay [1] addresses FcγRI (CD64) (UniProt P12314). The assay can be described thus: SPR; Biacore analysis; who was immobilised, buffer and temperature not given for this experiment. A general note: Surface plasmon resonance follows binding to a sensor surface in real time, without labels.
The target of assay [2] is HER2 on the cell surface (human (endogenous in SK-BR-3, HCC1954 and BT474)) (UniProt P04626). Description: flow cytometry on cells; cells with 0.1-2,000 nmol/l Fcab for 1 hour at 4 °C in DPBS with 2% FBS; detected by anti-human IgG-phycoerythrin. A general note: In flow cytometry, cells or beads pass a laser one at a time.
The target in assay [3] is human HER2 ECD-Fc recombinant (human) (UniProt P04626). Description: SPR; BIAcore 3000; human HER2 ECD-Fc amine-coupled on a CM5 chip to 200 RU; analyte FS102 (50 µg/ml) at 20 µl/minute; HBS-P buffer; apparent KD.
Assay [4] addresses neonatal Fc receptor (FcRn) (UniProt P55899). Description: SPR; Biacore analysis; FcRn data collected at pH6; who was immobilised not told.
Assay [5] deals with HER2 on the cell surface (human (endogenous in SK-BR-3, HCC1954 and BT474)) (UniProt P04626).
For assay [6], the target named is FcγRIII (CD16A) (UniProt P08637). The assay can be described thus: SPR; Biacore analysis; who was immobilised, buffer and temperature not given for this experiment.
Assay [7] addresses FcγRIIB (CD32B) (UniProt P31994). The assay is described as above.
Assay [8] has as its target FcγRIIA (CD32A) (UniProt P12318). The assay is described as above.

FcγRIIB (CD32B), sequence (P31994 43-310): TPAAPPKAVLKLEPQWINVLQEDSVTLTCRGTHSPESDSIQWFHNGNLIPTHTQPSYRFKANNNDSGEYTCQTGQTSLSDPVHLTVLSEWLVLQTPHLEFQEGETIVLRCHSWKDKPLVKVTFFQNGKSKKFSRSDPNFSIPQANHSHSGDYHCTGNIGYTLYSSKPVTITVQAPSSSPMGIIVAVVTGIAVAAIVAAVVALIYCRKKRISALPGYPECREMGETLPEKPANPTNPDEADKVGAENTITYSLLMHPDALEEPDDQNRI
FcγRIII (CD16A), sequence (P08637 17-254): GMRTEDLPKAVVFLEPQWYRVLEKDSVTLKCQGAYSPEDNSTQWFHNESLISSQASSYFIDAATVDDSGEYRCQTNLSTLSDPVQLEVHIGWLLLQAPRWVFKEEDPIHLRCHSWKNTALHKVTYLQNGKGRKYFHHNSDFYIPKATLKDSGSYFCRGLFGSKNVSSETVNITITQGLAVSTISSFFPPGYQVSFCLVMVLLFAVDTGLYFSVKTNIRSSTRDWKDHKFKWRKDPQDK
FcγRIIA (CD32A), sequence (P12318 34-317): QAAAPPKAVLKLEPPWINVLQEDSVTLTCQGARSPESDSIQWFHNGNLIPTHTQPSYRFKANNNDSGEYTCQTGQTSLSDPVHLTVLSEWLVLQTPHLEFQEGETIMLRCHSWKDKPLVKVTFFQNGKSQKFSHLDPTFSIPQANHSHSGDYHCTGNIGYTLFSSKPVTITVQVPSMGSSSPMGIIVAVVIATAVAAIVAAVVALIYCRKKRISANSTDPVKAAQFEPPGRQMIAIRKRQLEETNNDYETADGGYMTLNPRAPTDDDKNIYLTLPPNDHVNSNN
FcγRI (CD64), sequence (P12314 16-374): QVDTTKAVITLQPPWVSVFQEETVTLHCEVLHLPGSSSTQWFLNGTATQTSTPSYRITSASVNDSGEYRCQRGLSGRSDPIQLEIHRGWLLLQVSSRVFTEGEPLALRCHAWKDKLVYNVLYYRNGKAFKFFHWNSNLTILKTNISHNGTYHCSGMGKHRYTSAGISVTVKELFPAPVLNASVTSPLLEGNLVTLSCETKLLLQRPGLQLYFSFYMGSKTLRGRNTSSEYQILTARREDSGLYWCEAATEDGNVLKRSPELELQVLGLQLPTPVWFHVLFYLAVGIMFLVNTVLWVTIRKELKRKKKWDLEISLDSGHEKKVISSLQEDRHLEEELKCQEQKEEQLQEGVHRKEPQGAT
neonatal Fc receptor (FcRn), sequence (P55899 whole entry, looked up, tested part not stated): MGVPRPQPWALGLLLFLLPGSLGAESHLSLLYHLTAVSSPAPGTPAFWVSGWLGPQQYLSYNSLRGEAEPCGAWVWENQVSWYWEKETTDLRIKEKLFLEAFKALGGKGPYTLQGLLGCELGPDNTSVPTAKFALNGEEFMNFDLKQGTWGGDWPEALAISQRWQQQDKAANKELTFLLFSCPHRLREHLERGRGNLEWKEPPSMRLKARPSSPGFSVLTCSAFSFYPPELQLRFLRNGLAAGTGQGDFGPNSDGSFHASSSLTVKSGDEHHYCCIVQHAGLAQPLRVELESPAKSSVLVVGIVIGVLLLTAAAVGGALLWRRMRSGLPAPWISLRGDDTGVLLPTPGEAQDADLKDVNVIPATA

In assay [1], Trastuzumab (antibody) returned a Kd of 40 nM.
By EC50 is commonly meant the concentration giving half of the maximal effect. Turning to FS102 (designed binder), the EC50 in assay [2] was found to be 3.3 nM. Moreover, the Kd turned out to be 0.8 nM in assay [3]; 45 nM in assay [4]; 560 nM in assay [6]; 19 nM in assay [1]; 6400 nM in assay [7]; 472 nM in assay [8]. For the same substance, the reduction of HCC1954 cell number after 5 days of incubation (proliferation assay) in assay [5] is 47%. In addition, in assay [5], the reduction of SK-BR-3 cell number after 5 days of incubation (proliferation assay) was 39%.
In the case of IgG1 (antibody), the Kd is 20 to 60 nM in assay [4]; 660 nM in assay [6]; 15 nM in assay [1]; 5000 nM in assay [7]; 250 nM in assay [8].
“WT Fcab (unmodified constant region of human IgG1) (domain or fragment)”: the Kd in assay [6] stood at 500 nM; in assay [1], 27 nM; in assay [7], 6200 nM; in assay [8], 1000 nM.

These data come from publication PMC4817942.
